The chains are these.
B1: αE-catenin R551A (full-length) (natural protein, murine, UniProt P26231 1-906, looked up)
chain: MTAVHAGNINFKWDPKSLEIRTLAVERLLEPLVTQVTTLVNTNSKGPSNKKRGRSKKAHVLAASVEQATENFLEKGDKIAKESQFLKEELVVAVEDVRKQGDLMKSAAGEFADDPCSSVKRGNMVRAARALLSAVTRLLILADMADVYKLLVQLKVVEDGILKLRNAGNEQDLGIQYKALKPEVDKLNIMAAKRQQELKDVGNRDQMAAARGILQKNVPILYTASQACLQHPDVAAYKANRDLIYKQLQQAVTGISNAAQATASDDAAQHQGGSGGELAYALNNFDKQIIVDPLSFSEERFRPSLEERLESIISGAALMADSSCTRDDRRERIVAECNAVRQALQDLLSEYMGNAGRKERSDALNSAIDKMTKKTRDLRRQLRKAVMDHVSDSFLETNVPLLVLIEAAKNGNEKEVKEYAQVFREHANKLIEVANLACSISNNEEGVKLVRMSASQLEALCPQVINAALALAAKPQSKLAQENMDLFKEQWEKQVRVLTDAVDDITSIDDFLAVSENHILEDVNKCVIALQEKDVDGLDRTAGAIRGRAAAVIHVVTSEMDNYEPGVYTEKVLEATKLLSNTVMPRFTEQVEAAVEALSSDPAQPMDENEFIDASRLVYDGIRDIRKAVLMIRTPEELDDSDFETEDFDVRSRTSVQTEDDQLIAGQSARAIMAQLPQEQKAKIAEQVASFQEEKSKLDAEVSKWDDSGNDIIVLAKQMCMIMMEMTDFTRGKGPLKNTSDVISAAKKIAEAGSRMDKLGRTIADHCPDSACKQDLLAYLQRIALYCHQLNICSKVKAEVQNLGGELVVSGVDSAMSLIQAAKNLMNAVVQTVKASYVASTKYQKSQGMASLNLPAVSWKMKAPEKKPLVKREKQDETQTKIKRASQKKHVNPVQALSEFKAMDSI
notes: αE-catenin, murine, full length, with the point mutation R551A; Used in ITC (monomer in the cell); also called R551A αE-catenin; R551A mutant; source: E. coli BL21, purified (glutathione-agarose, TEV cleavage, Mono Q, SEC); monomer used; not shown: GST, N-terminal, cleaved
B3: β-catenin•Ecyto complex (complex)
chain 1: MATQADLMELDMAMEPDRKAAVSHWQQQSYLDSGIHSGATTTAPSLSGKGNPEEEDVDTSQVLYEWEQGFSQSFTQEQVADIDGQYAMTRAQRVRAAMFPETLDEGMQIPSTQFDAAHPTNVQRLAEPSQMLKHAVVNLINYQDDAELATRAIPELTKLLNDEDQVVVNKAAVMVHQLSKKEASRHAIMRSPQMVSAIVRTMQNTNDVETARCTAGTLHNLSHHREGLLAIFKSGGIPALVKMLGSPVDSVLFYAITTLHNLLLHQEGAKMAVRLAGGLQKMVALLNKTNVKFLAITTDCLQILAYGNQESKLIILASGGPQALVNIMRTYTYEKLLWTTSRVLKVLSVCSSNKPAIVEAGGMQALGLHLTDPSQRLVQNCLWTLRNLSDAATKQEGMEGLLGTLVQLLGSDDINVVTCAAGILSNLTCNNYKNKMMVCQVGGIEALVRTVLRAGDREDITEPAICALRHLTSRHQEAEMAQNAVRLHYGLPVVVKLLHPPSHWPLIKATVGLIRNLALCPANHAPLREQGAIPRLVQLLVRAHQDTQRRTSMGGTQQQFVEGVRMEEIVEGCTGALHILARDVHNRIVIRGLNTIPLFVQLLYSPIENIQRVAAGVLCELAQDKEAAEAIEAEGATAPLTELLHSRNEGVATYAAAVLFRMSEDKPQDYKKRLSVELTSSLFRTEPMAWNETADLGLDIGAQGEALGYRQDDPSYRSFHSGGYGQDALGMDPMMEHEMGGHHPGADYPVDGLPDLGHAQDLMDGLPPGDSNQLAWFDTDL
chain 2: not shown
notes: β-catenin, murine; cytoplasmic domain of E-cadherin (Ecyto); also called E-cadherin•β-catenin complex; cadherin•β-catenin

The series “β-catenin•Ecyto complex” has as its target B3. The series is described as follows: ITC; VP-ITC; αE-catenin monomer (or its complex) in the cell at 8–11 μM, binding partner injected at 70–155 μM; 20 mM HEPES pH 8.0, 150 mM NaCl, 1 mM DTT; 25 °C. Particulars: both partners purified.
The target of series [1] is B1. The description is as above. Particulars: both partners purified.
Series [2] deals with the molecule itself. The series can be described thus: crystal structure; αE-catenin 82–883 (C116S) dimer, 4.0 Å, crystals not dehydrated.
The target of series [3] is T1, αE-catenin R551A•β-catenin•Ecyto complex (murine | , UniProt P26231 1-906; Q02248 1-781; P09803 734-884, R551A).
T1 construct: αE-catenin, murine, full length, with the point mutation R551A; β-catenin, murine; cytoplasmic domain of E-cadherin (Ecyto); Ternary complex placed in the ITC cell; also called ternary E-cadherin•β-catenin•αE-catenin R551A mutant complex; source: αE-catenin R551A: E. coli BL21, purified; not shown: GST, N-terminal, cleaved; copies: + +
T1 sequence (P09803 734-884, stated change not applied, one chain of several): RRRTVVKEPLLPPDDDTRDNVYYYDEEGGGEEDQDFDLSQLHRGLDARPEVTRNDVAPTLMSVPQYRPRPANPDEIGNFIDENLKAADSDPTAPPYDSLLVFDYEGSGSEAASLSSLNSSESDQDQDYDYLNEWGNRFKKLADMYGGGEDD
The series can be described thus: ITC; VP-ITC; αE-catenin monomer (or its complex) in the cell at 8–11 μM, binding partner injected at 70–155 μM; 20 mM HEPES pH 8.0, 150 mM NaCl, 1 mM DTT; 25 °C. The conditions noted are these: both partners purified.

Sequence of β-catenin•Ecyto complex (P09803 734-884, one chain of several): as the sequence (P09803 734-884, stated change not applied, one chain of several) above

On to B1, for which the Kd with β-catenin•Ecyto complex came to 14 nM.

B2: β-catenin (natural protein, murine, UniProt Q02248 1-781, looked up)
chain: MATQADLMELDMAMEPDRKAAVSHWQQQSYLDSGIHSGATTTAPSLSGKGNPEEEDVDTSQVLYEWEQGFSQSFTQEQVADIDGQYAMTRAQRVRAAMFPETLDEGMQIPSTQFDAAHPTNVQRLAEPSQMLKHAVVNLINYQDDAELATRAIPELTKLLNDEDQVVVNKAAVMVHQLSKKEASRHAIMRSPQMVSAIVRTMQNTNDVETARCTAGTLHNLSHHREGLLAIFKSGGIPALVKMLGSPVDSVLFYAITTLHNLLLHQEGAKMAVRLAGGLQKMVALLNKTNVKFLAITTDCLQILAYGNQESKLIILASGGPQALVNIMRTYTYEKLLWTTSRVLKVLSVCSSNKPAIVEAGGMQALGLHLTDPSQRLVQNCLWTLRNLSDAATKQEGMEGLLGTLVQLLGSDDINVVTCAAGILSNLTCNNYKNKMMVCQVGGIEALVRTVLRAGDREDITEPAICALRHLTSRHQEAEMAQNAVRLHYGLPVVVKLLHPPSHWPLIKATVGLIRNLALCPANHAPLREQGAIPRLVQLLVRAHQDTQRRTSMGGTQQQFVEGVRMEEIVEGCTGALHILARDVHNRIVIRGLNTIPLFVQLLYSPIENIQRVAAGVLCELAQDKEAAEAIEAEGATAPLTELLHSRNEGVATYAAAVLFRMSEDKPQDYKKRLSVELTSSLFRTEPMAWNETADLGLDIGAQGEALGYRQDDPSYRSFHSGGYGQDALGMDPMMEHEMGGHHPGADYPVDGLPDLGHAQDLMDGLPPGDSNQLAWFDTDL
notes: β-catenin, murine; also called murine β-catenin
With B2, in series [1], the Kd was 78 nM and the dH is -33.3 kcal/mol.

Molecule B3 displayed a dH in series [1] of -32.3 kcal/mol.

B4: αE-catenin 82–883 (C116S) (domain or fragment, murine, UniProt P26231 82-883, looked up)
chain: ESQFLKEELVVAVEDVRKQGDLMKSAAGEFADDPSSSVKRGNMVRAARALLSAVTRLLILADMADVYKLLVQLKVVEDGILKLRNAGNEQDLGIQYKALKPEVDKLNIMAAKRQQELKDVGNRDQMAAARGILQKNVPILYTASQACLQHPDVAAYKANRDLIYKQLQQAVTGISNAAQATASDDAAQHQGGSGGELAYALNNFDKQIIVDPLSFSEERFRPSLEERLESIISGAALMADSSCTRDDRRERIVAECNAVRQALQDLLSEYMGNAGRKERSDALNSAIDKMTKKTRDLRRQLRKAVMDHVSDSFLETNVPLLVLIEAAKNGNEKEVKEYAQVFREHANKLIEVANLACSISNNEEGVKLVRMSASQLEALCPQVINAALALAAKPQSKLAQENMDLFKEQWEKQVRVLTDAVDDITSIDDFLAVSENHILEDVNKCVIALQEKDVDGLDRTAGAIRGRAARVIHVVTSEMDNYEPGVYTEKVLEATKLLSNTVMPRFTEQVEAAVEALSSDPAQPMDENEFIDASRLVYDGIRDIRKAVLMIRTPEELDDSDFETEDFDVRSRTSVQTEDDQLIAGQSARAIMAQLPQEQKAKIAEQVASFQEEKSKLDAEVSKWDDSGNDIIVLAKQMCMIMMEMTDFTRGKGPLKNTSDVISAAKKIAEAGSRMDKLGRTIADHCPDSACKQDLLAYLQRIALYCHQLNICSKVKAEVQNLGGELVVSGVDSAMSLIQAAKNLMNAVVQTVKASYVASTKYQKSQGMASLNLPAVSWKMKAPEKKPLVKREKQDETQTKIK
notes: Crystallised as a homodimer; source: E. coli BL21, purified (glutathione-agarose, TEV cleavage, Mono Q, SEC); not shown: GST, N-terminal, cleaved
On to B4, for which the binding result in series [2] is recorded as “binds”.

B5: vinculin D1 domain (residues 1–259) (domain or fragment, chicken, UniProt P12003 1-259, looked up)
chain: MPVFHTRTIESILEPVAQQISHLVIMHEEGEVDGKAIPDLTAPVSAVQAAVSNLVRVGKETVQTTEDQILKRDMPPAFIKVENACTKLVRAAQMLQADPYSVPARDYLIDGSRGILSGTSDLLLTFDEAEVRKIIRVCKGILEYLTVAEVVETMEDLVTYTKNLGPGMTKMAKMIDERQQELTHQEHRVMLVNSMNTVKELLPVLISAMKIFVTTKNTKSQGIEEALKNRNFTVEKMSAEINEIIRVLQLTSWDEDAWA
notes: vinculin D1 domain, residues 1–259; the methods name chicken vinculin just before it
On to B5, for which, in series [1], the Kd stood at 4.1 nM and the dH was determined as 7.7 kcal/mol. In series [3], this molecule yielded a Kd of 26 nM and a dH of 6.7 kcal/mol.

The values are drawn from article PMC6814714, “Binding partner- and force-promoted changes in αE-catenin conformation probed by native cysteine labeling” (Scientific Reports, 2019).
